B1: LOC100129726 (parent)
chain: VHTGCHKKLGPEARRPRTRWGKN
B2: WEE1 (parent)
chain: FISRTSIPNAASEEGDEDDWASNK

Variants of: B1
Assay: protein stability index of a GFP-peptide fusion (GPS, HEK-293T) (PSI 1-6); higher = more stable
Settings: c terminus: native
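Further: lentivirally expressed fusions sorted by FACS into six bins by GFP to DsRed ratio, PSI derived from sequencing read proportions per bin multiplied by bin number.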

Protein stability index: each site, then its substitutions
T18: N 1.74 | I 1.4 | V 1.29 | D 3.96 | E 3.94 | F 2.03 | Q 2.47 | C 1.63 | Y 2.37 | H 1.7 | G 3.94 | M 2 | L 3.05 | S 2.69 | A 2.96
K8: I 1.37 | E 1.63 | Q 2.41 | L 2.63 | P 2.52 | S 2.25 | C 1.65 | M 2.25
A13: W 2.94 | E 2.55 | N 1.94 | K 1.11 | S 2.71 | F 2.49 | R 1.64
W20: K 5 | L 4.36 | Q 3.66 | I 3.89 | R 4.73 | F 2.87 | T 4.15 | M 3.15 | N 4.45 | S 4.58 | V 3.67 | A 3.77 | G 1.33 | Y 2.26 | C 2.99 | H 2.02 | P 2.01
G4: V 2.14 | K 2.71 | N 1.01 | L 2.91 | P 2.15 | M 2.44 | R 2.47 | S 2.56 | I 2.66
K7: H 2.33 | E 1.87 | V 1.08 | M 4.17
P11: Y 2.17 | M 2.37 | W 1.46 | D 2.18 | A 2.24 | S 1.53 | T 2.67 | V 2.25 | K 2.05 | R 1.01 | F 2.47
R19: Y 1.92 | N 2.5 | H 2.59 | M 2.41 | W 2.67 | K 1.49 | L 3.09 | D 5.13 | F 2.3 | E 3.77
K22: I 4.11 | P 3.43 | T 2.93
H6: K 1.38 | A 1.63 | T 1.76 | Y 2.62 | M 2.12 | R 2.85 | P 1.77 | E 1.41 | S 1.85 | F 1.81 | G 1.64
R15: I 1.27 | H 2.44 | Y 2.06 | C 1.41 | N 2.42 | Q 1.75 | G 3.43 | V 1.34 | F 3.27 | P 2.75 | E 2.63 | L 1.7
G10: T 2.48 | A 3.09 | K 2.05 | L 1.22 | W 2.17 | M 1.61 | P 3.1 | V 1.39 | I 1.33 | R 2.37 | H 1.74 | Y 1.29 | F 1.66
N23: L 1.42 | Q 1.63 | P 2.62 | T 2.35 | I 1.3 | S 1.74 | W 2.27 | D 2.78 | C 1.61 | F 2.03
E12: Q 1.75 | V 1.23 | C 3.61 | K 1.01 | T 1.42 | H 2.21 | D 2.56 | Y 2.69 | L 2.17 | F 1.23 | R 3.79 | M 1.47
L9: R 2.64 | P 2.92 | C 2.4 | N 2.8 | H 1.62 | V 2.02 | Q 2.72
R14: E 3.01 | F 2.72 | P 4.64 | A 3.44 | H 2.71 | V 3.24 | K 2.05 | M 3.01 | G 4.21 | C 2.81 | Y 3 | I 3.23 | W 1.54
P16: S 1.46 | E 1.8 | C 1.24 | K 3.74 | G 3.15 | N 3.05 | H 1.39 | Q 1.03
G21: W 2.69 | K 4.43 | L 3.56 | H 4.34 | D 4 | F 3.36 | M 3.89 | V 2.78 | E 4.54 | Q 4.45 | T 3.57 | I 2.85 | C 3.16 | N 4.39 | P 4.47 | A 3.47
R17: F 2.48 | E 2.26 | C 1.93 | A 2.5 | P 4.37 | I 1.98 | G 2.75 | Y 2.15 | D 4.38 | L 1.7 | Q 1.01 | S 2.7 | W 1.66 | T 2.59 | K 1.36 | N 3.66
C5: A 2.57 | N 1.59 | L 2.41 | V 2.93 | K 2.27 | F 1.85 | T 2.35 | Y 1.98 | M 2.41 | E 2.57 | P 2.09 | G 2.34 | S 1.51 | I 1.63 | R 2.29 | W 1.2 | Q 1.54

Variants of: B2
Assay: as above
Settings: c terminus: a fixed tail appended

Protein stability index of substitutions, site by site:
S3: L 3.95 | Y 3.37 | N 4.62 | E 4.78 | D 4.67 | F 3.57 | T 4.26 | P 3.67 | Q 4.09 | V 3.6 | I 3.21 | H 3.59 | M 4 | G 3.17 | A 4.44 | K 4.56 | C 4.11 | W 2.85 | R 4.02
R4: W 3.67 | Y 4.1 | N 4.64 | P 3.68 | E 5.35 | F 3.15 | S 4.2 | V 4.39 | C 4.37 | K 3.86 | Q 4.6 | A 3.49 | L 4.05 | T 4.94 | D 4.92 | I 3.85 | G 4.62 | H 4.15 | M 4.25
T5: D 4.2 | R 3.77 | K 4.01 | M 3.3 | E 4.85 | L 3.6 | C 3.58 | P 4 | V 3.86 | Y 2.19 | W 2.71 | G 3.53 | H 3.21 | I 3.5 | Q 3.74 | F 2.35 | S 4.01 | N 4.28 | A 4.19
F1: K 5.42 | R 4.92 | W 4.88 | H 5.37 | C 5.29 | A 5.37 | V 5.41 | M 5.24 | Y 4.39 | E 5.46 | G 5.71 | L 5.6 | Q 5.63 | I 5.73 | N 5.29 | D 5.56 | S 5.84 | P 5.89 | T 5.32
I7: A 4.21
I2: G 5.75 | L 5.06 | S 5.02 | H 3.36 | M 4.84 | Y 4.95 | R 5.32 | A 4.66 | C 3.34 | Q 4.58 | P 5.21 | E 5.59 | V 2.78 | W 4.79 | N 5.67 | D 5.62 | T 4.88 | F 5.38 | K 5.46
S6: Y 1.98 | G 3.58 | E 4.86 | I 3.61 | C 3.95 | F 1.83 | L 2.66 | N 4.53 | P 3.79 | R 3.22 | T 3.73 | Q 3.89 | M 3.15 | H 3.48 | V 3.69 | A 3.98 | W 3.48 | D 4.39 | K 4.27

From the supplement of paper PMC10567573
